The chains are these.
B1: HDAC6 (parent)
chain: QYMNEGELRVLADTYDSVYLHPNS
B2: RSPH3 (parent)
chain: KAASLARNLAKRRRTYLGGAAGRS
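Also: lentivirally expressed fusions sorted by FACS into six bins by GFP to DsRed ratio, PSI derived from sequencing read proportions per bin multiplied by bin number.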

One series covers variants of B1. Nature of the series: protein stability index of a GFP-peptide fusion (GPS, HEK-293T) (PSI 1-6); higher = more stable. Conditions: c terminus: a fixed tail appended.
With QYMNEGELRVLADTYDSVYLHPCS [N23C], the protein stability index is 1.99. As to QYMNEGELRVLADTYDSVYLHPSS [N23S], the protein stability index is 2.34. On the same count and under the same terms, with QYMNEGELRVLADTYDSVYLHPWS [N23W] the figure was 1.46; with QYMNEGELRVLADTYDSVYLHPIS [N23I], 2.31. Same read-out and setting: with QYMNEGELRVLADTYDSVYLHPYS [N23Y] the figure was 1.73; with QYMNEGELRVLADTYDSVYLHPFS [N23F], 1.96; with QYMNEGELRVLADTYDSVYLHPQS [N23Q], 1.92.

In the case of QYMNEGELRVLADTYDSVYLHPDS [N23D], the protein stability index was 1.8. Same read-out and setting: with QYMNEGELRVLADTYDSVYLHPMS [N23M] the figure was 1.23. Still for that read-out and setting: with QYMNEGELRVLADTYDSVYLHPTS [N23T] the figure was 2.03; with QYMNEGELRVLADTYDSVYLHPRS [N23R], 2.17. Same read-out and setting: with QYMNEGELRVLADTYDSVYLHPHS [N23H] the figure was 1.94. Turning to QYMNEGELRVLADTYDSVYLHPKS [N23K], the protein stability index amounted to 2.36.

As to QYMNEGELRVLADTYDSVYLHPES [N23E], the protein stability index stood at 2.69.

In the case of QYMNEGELRVLADTYDSVYLHPPS [N23P], the protein stability index turned out to be 1.57. Same read-out and setting: with QYMNEGELRVLADTYDSVYLHPLS [N23L] the figure was 1.6; with QYMNEGELRVLADTYDSVYLHPAS [N23A], 1.43. The same measure, in the same setting: with QYMNEGELRVLADTYDSVYLHPVS [N23V] the figure was 2.03; with QYMNEGELRVLADTYDSVYLHPNY [S24Y], 1.41. Still for that read-out and setting: with QYMNEGELRVLADTYDSVYLHPNG [S24G] the figure was 2.24.

In the case of QYMNEGELRVLADTYDSVYLHPNM [S24M], the protein stability index was found to be 1.57.

With QYMNEGELRVLADTYDSVYLHPNF [S24F], the protein stability index came to 1.58. Still for that read-out and setting: with QYMNEGELRVLADTYDSVYLHPNI [S24I] the figure was 3.21; with QYMNEGELRVLADTYDSVYLHPNN [S24N], 2.04; with QYMNEGELRVLADTYDSVYLHPNP [S24P], 1.91. Same read-out and setting: with QYMNEGELRVLADTYDSVYLHPNT [S24T] the figure was 1.52. On the same count and under the same terms, with QYMNEGELRVLADTYDSVYLHPNR [S24R] the figure was 2.4. For the variant QYMNEGELRVLADTYDSVYLHPNA [S24A], the protein stability index was 1.44. Turning to QYMNEGELRVLADTYDSVYLHPNQ [S24Q], the protein stability index was found to be 3.76. With QYMNEGELRVLADTYDSVYLHPNC [S24C], the protein stability index stood at 1.64. The same measure, in the same setting: with QYMNEGELRVLADTYDSVYLHPNL [S24L] the figure was 1.52; with QYMNEGELRVLADTYDSVYLHPNK [S24K], 1.46. On to QYMNEGELRVLADTYDSVYLHPND [S24D], for which the protein stability index came out at 2.58. The same measure, in the same setting: with QYMNEGELRVLADTYDSVYLHPNW [S24W] the figure was 1.24; with QYMNEGELRVLADTYDSVYLHPNH [S24H], 1.61. Take QYMNEGELRVLADTYDSVYLHPNE [S24E]: the protein stability index is 1.73. As to QYMNEGELRVLADTYDSVYLHPNV [S24V], the protein stability index came to 1.74. Same read-out and setting: with QYMNEGELRVLADTYDSVYLPPNS [H21P] the figure was 1.85.

As to QYMNEGELRVLADTYDSVYLWPNS [H21W], the protein stability index was 1.84. On to QYMNEGELRVLADTYDSVYLRPNS [H21R], for which the protein stability index was 1.76. On the same count and under the same terms, with QYMNEGELRVLADTYDSVYLNPNS [H21N] the figure was 2.21; with QYMNEGELRVLADTYDSVYLQPNS [H21Q], 2.11. On the same count and under the same terms, with QYMNEGELRVLADTYDSVYLMPNS [H21M] the figure was 1.47; with QYMNEGELRVLADTYDSVYLSPNS [H21S], 1.55; with QYMNEGELRVLADTYDSVYLTPNS [H21T], 1.38. As for QYMNEGELRVLADTYDSVYLYPNS [H21Y], the protein stability index is 2.18. With QYMNEGELRVLADTYDSVYLHTNS [P22T], the protein stability index is 1.66. Take QYMNEGELRVLADTYDSVYLHMNS [P22M]: the protein stability index turned out to be 2.15. Same read-out and setting: with QYMNEGELRVLADTYDSVYLHSNS [P22S] the figure was 1.68; with QYMNEGELRVLADTYDSVYLHRNS [P22R], 1.96; with QYMNEGELRVLADTYDSVYLHCNS [P22C], 1.85.

For QYMNEGELRVLADTYDSVYLHGNS [P22G], the protein stability index was 2.27.

On to QYMNEGELRVLADTYDSVYLHINS [P22I], for which the protein stability index was determined as 2.08. As for QYMNEGELRVLADTYDSVYLHWNS [P22W], the protein stability index came to 2.56. As for QYMNEGELRVLADTYDSVYLHNNS [P22N], the protein stability index amounted to 1.38.

As for QYMNEGELRVLADTYDSVYLHENS [P22E], the protein stability index came out at 2.13.

As for QYMNEGELRVLADTYDSVYLHQNS [P22Q], the protein stability index worked out at 1.58. Same read-out and setting: with QYMNEGELRVLADTYDSVYLHLNS [P22L] the figure was 1.3. Same read-out and setting: with QYMNEGELRVLADTYDSVYLHHNS [P22H] the figure was 2.4; with QYMNEGELRVLADTYDSVYLHANS [P22A], 2.15; with QYMNEGELRVLADTYDSVYLHVNS [P22V], 1.83. Turning to QYMNEGELRVLADTYDSVYLHKNS [P22K], the protein stability index amounted to 1.96. As to QYMNEGELRVLADTYDSVYLHYNS [P22Y], the protein stability index was 1.41. In the case of QYMNEGELRVLADTYDSVYLHDNS [P22D], the protein stability index worked out at 2.37. The same measure, in the same setting: with QYMNEGELRVLADTYDSVYLHFNS [P22F] the figure was 1.82.

The variants in another series derive from B2. Described as above. Conditions: c terminus: a fixed tail appended.
KAAWLARNLAKRRRTYLGGAAGRS [S4W]: the protein stability index was 1.89. Same read-out and setting: with KAAHLARNLAKRRRTYLGGAAGRS [S4H] the figure was 2.32; with KAAQLARNLAKRRRTYLGGAAGRS [S4Q], 2.36. Turning to KAAYLARNLAKRRRTYLGGAAGRS [S4Y], the protein stability index stood at 1.48. Take KAARLARNLAKRRRTYLGGAAGRS [S4R]: the protein stability index was 2.82. As to KAACLARNLAKRRRTYLGGAAGRS [S4C], the protein stability index came out at 1.98. On the same count and under the same terms, with KAASLARNLAKRRRFYLGGAAGRS [T15F] the figure was 2.31. The same measure, in the same setting: with KAASLARNLAKRRRHYLGGAAGRS [T15H] the figure was 2.09. The same measure, in the same setting: with KAASLARNLAKRRRVYLGGAAGRS [T15V] the figure was 1.91; with KAASLARNLAKRRRDYLGGAAGRS [T15D], 2.17. KAASLARNLAKRRRTYLGGAAGLS [R23L]: the protein stability index is 1.83.

On to KAASLARNLAKRRRTYLGGAAGKS [R23K], for which the protein stability index is 2.14. For KAASLARNLAKRRRTYLGGAAGPS [R23P], the protein stability index worked out at 2.83.

For the variant KAASLARNLAKRRRTYLGGAAGMS [R23M], the protein stability index was 2.

With KAASLARNLAKRRRTYLGGAAGWS [R23W], the protein stability index was found to be 1.61. Regarding KAASLARNLAKRRRTYLGGAAGQS [R23Q], the protein stability index was 1.23. Consider KAASLARNLAKRRRTYLLGAAGRS [G18L], for which the protein stability index was found to be 2.32. Same read-out and setting: with KAASLARNLAKRRRTYLAGAAGRS [G18A] the figure was 2.25.

For the variant KAASLARNLAKRRRTYLKGAAGRS [G18K], the protein stability index was 2.35. The same measure, in the same setting: with KAASLARNLAKRRRTYLVGAAGRS [G18V] the figure was 2.36; with KAASLARNLAKRRRTYLYGAAGRS [G18Y], 3.11.

Take KAASLARNLNKRRRTYLGGAAGRS [A10N]: the protein stability index was 2.64.

KAASLARNLTKRRRTYLGGAAGRS [A10T]: the protein stability index came to 3.17. The same measure, in the same setting: with KAASLARNLHKRRRTYLGGAAGRS [A10H] the figure was 3.15; with KAASLARNLFKRRRTYLGGAAGRS [A10F], 1.29; with KAASLARNLCKRRRTYLGGAAGRS [A10C], 1.98. On the same count and under the same terms, with KAASIARNLAKRRRTYLGGAAGRS [L5I] the figure was 2.58; with KAASTARNLAKRRRTYLGGAAGRS [L5T], 3.96; with KAASGARNLAKRRRTYLGGAAGRS [L5G], 4.8.

The record behind these values is the supplement of paper PMC10567573.
